Measured values as given in patent US20070232520A1 (YEDA RESEARCH AND DEVELOPMENT, published 2007).

B1: C terminally truncated p55-IC (construct 206-308) (receptor)
chain: RYQRWKSKLYSIVCGKSTPEKEGELEGTTTKPLAPNPSFSPTPGFTPTLGFSPVPSSTFTSSSTYTPGDCPNFAAPRREVAPPYQGADPILATALASDPIPNP
notes: GAL4 part not written
B2: E3 (p75IC-binding protein encoded by clone E3) (other)
chain: TFKIRMEPDETVKVLKEKIEAEKGRDAFPVAGQKLIYAGKILSDDVPIRDYRIDEKNFVVVMVTKTKAGQGTSAPPEASPTAAPESSTSFPPAPTSGMSHPPPAAREDKSPSEESTPTPEQEPCLZ
notes: GAL4 part not written; for coprecipitation expressed in HeLa cells from pUHD10-3
B3: full-length intracellular domain of the p55-TNF-R (p55IC) (receptor)
chain: RYQRWKSKLYSIVCGKSTPEKEGELEGTTTKPLAPNPSFSPTPGFTPTLGFSPVPSSTFTSSSTYTPGDCPNFAAPRREVAPPYQGADPILATALASDPIPNPLQKWEDSAHKPQSLDTDDPATLYAVVENVPPLRWKEFVRRLGLSDHEIDRLELQNGRCLREAQYSMLATWRRRTPRREATLELLGRVLRDMDLLGCLEDIEEALCGPAALPPAPSLLR
notes: the GAL4 part is not written as a piece; also called pGBT9-IC55; IC55
B4: mouse Fas/APO1 intracellular domain (FAS-IC, residues 166-306) (receptor, UniProt P25446 187-327, looked up)
chain: RKYRKRKCWKRRQDDPESRTSSRETIPMNASNLSLSKYIPRIAEDMTIQEAKKFARENNIKEGKIDEIMHDSIQDTAEQKVQLLLCWYQSHGKSDAYQDLIKGLKKAECRRTLDKFQDMVQKDLGKSTPDTGNENEGQCLE
notes: range 166-306; GAL4 hybrid constructs; also called murine FAS-IC; mouse FAS-IC
B5: 55.3 (protein fragment 55.3 of the p55IC, residues 277-426) (receptor)
chain: NFAAPRREVAPPYQGADPILATALASDPIPNPLQKWEDSAHKPQSLDTDDPATLYAVVENVPPLRWKEFVRRLGLSDHEIDRLELQNGRCLREAQYSMLATWRRRTPRREATLELLGRVLRDMDLLGCLEDIEEALCGPAALPPAPSLLR
B6: 55.1 (protein fragment 55.1 of the p55IC, residues 328-426, the death domain) (receptor)
chain: ATLYAVVENVPPLRWKEFVRRLGLSDHEIDRLELQNGRCLREAQYSMLATWRRRTPRREATLELLGRVLRDMDLLGCLEDIEEALCGPAALPPAPSLLR
notes: also called death domain of human p55-R
B7: truncated p55-IC from which the death domain had been deleted (construct 206-328) (receptor)
chain: RYQRWKSKLYSIVCGKSTPEKEGELEGTTTKPLAPNPSFSPTPGFTPTLGFSPVPSSTFTSSSTYTPGDCPNFAAPRREVAPPYQGADPILATALASDPIPNPLQKWEDSAHKPQSLDTDDPA
notes: GAL4 part not written
B8: E19 (p75IC-binding protein encoded by clone E19) (other)
chain: EAAGRERERTLEYAEAHAFKSPSKENKKKDKDMLEDKFKSNNLEREQEQLDRIVKESGGKLTRRLVNSQCEFERRKPDGTTTLGLLHPVDPIVGEPGYCPVRLGMTTGRLQSGVNTLQGFKEDKRNKVTPVLYLELWAPTVLYAPHYDSTFANYQQGLI
notes: HeLa cDNA clone in pGAD-GH; GAL4 part not written
B9: p55-IC construct from which both the death domain and a membrane proximal part were deleted (construct 243-328) (receptor)
chain: SFSPTPGFTPTLGFSPVPSSTFTSSSTYTPGDCPNFAAPRREVAPPYQGADPILATALASDPIPNPLQKWEDSAHKPQSLDTDDPA
notes: GAL4 part not written
B10: protein encoded by the 230 clone (other)
chain: GPIREAGLAGWLALGCSGPPAEAAGGAGEPWPQHSGKGQLAGRNAWVKKRKAPRENSPGVRSCRASGRASRPHGDPFLLTLPRARHPVTLNVTIQVSLKQRNVRFNTPFRRGEN
notes: 114 amino acid residues; HeLa cDNA clone in pGAD-GH; GAL4 part not written

Legend:
[1] = biological target: T1, 55.11 protein, partial (residues 309-900, as originally isolated), GAL4 activation-domain hybrid (human, UniProt Q13200 318-899); assay: yeast two-hybrid beta-galactosidase filter assay (SFY526), FIG. 13
[2] = biological target: B3; assay: yeast two-hybrid (SFY526), various baits
[3] = biological target: T1, 55.11 protein, partial (residues …); assay: yeast two-hybrid, colony colour (lacZ/X-gal)
[4] = biological target: T2, 55.11 construct 309-680 (C-terminal truncation) (human, UniProt Q13200 318-689); assay: yeast two-hybrid beta-galactosidase filter assay (SFY526), FIG. 13
T2 construct: GAL4 part not written

[5] = biological target: T3, 55.11 construct 457-900 (N-terminal truncation) (human, UniProt Q13200 466-899); assay: as above
T3 construct: GAL4 part not written

[6] = biological target: T4, 55.11 protein, partial (residues 309-900), VP16 activation-domain hybrid (human, UniProt Q13200 318-899); assay: as above
T4 construct: the VP16 part is not written; also called VP16AD

[7] = biological target: the molecule itself; assay: yeast two-hybrid beta-galactosidase test (FIG. 14)
[8] = biological target: T5, lamin (irrelevant protein); assay: yeast two-hybrid (SFY526), liquid beta-galactosidase assay
T5 construct: Two-hybrid control bait; also called pACT-Lamin

[9] = biological target: B3; assay: as above
[10] = biological target: T6, pGBT9 (vector alone) (UniProt P04386 1-147); assay: as above
T6 construct: Negative control bait; also called empty bait vector; empty Gal4 (pGBT9) vector

[11] = biological target: T6, pGBT9 (vector alone); assay: yeast two-hybrid, colony colour (lacZ/X-gal)

T1 sequence (Q13200 other isoform, or with tags, fused parts or gaps): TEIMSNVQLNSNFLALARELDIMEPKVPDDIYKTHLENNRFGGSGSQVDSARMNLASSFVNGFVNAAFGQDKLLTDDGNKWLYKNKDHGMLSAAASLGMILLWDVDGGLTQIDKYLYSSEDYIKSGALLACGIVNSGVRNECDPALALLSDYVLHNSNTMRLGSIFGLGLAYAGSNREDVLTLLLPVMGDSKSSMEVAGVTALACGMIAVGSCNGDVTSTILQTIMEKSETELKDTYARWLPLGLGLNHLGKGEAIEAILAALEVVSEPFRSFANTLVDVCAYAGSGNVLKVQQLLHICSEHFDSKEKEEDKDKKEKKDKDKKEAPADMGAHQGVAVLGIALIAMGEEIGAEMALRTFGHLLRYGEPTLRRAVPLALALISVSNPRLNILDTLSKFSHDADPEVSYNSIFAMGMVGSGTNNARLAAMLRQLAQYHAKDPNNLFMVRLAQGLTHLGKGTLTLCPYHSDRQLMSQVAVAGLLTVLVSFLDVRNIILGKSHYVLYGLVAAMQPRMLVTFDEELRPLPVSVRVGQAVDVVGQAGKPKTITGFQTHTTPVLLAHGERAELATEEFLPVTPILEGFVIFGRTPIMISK
T6 sequence (P04386 1-147 limits assumed): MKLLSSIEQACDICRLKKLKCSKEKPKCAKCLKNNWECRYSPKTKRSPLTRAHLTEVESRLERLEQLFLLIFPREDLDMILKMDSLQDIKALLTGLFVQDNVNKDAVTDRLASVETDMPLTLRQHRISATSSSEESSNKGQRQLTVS
T3 sequence (Q13200 other isoform, or with tags, fused parts or gaps): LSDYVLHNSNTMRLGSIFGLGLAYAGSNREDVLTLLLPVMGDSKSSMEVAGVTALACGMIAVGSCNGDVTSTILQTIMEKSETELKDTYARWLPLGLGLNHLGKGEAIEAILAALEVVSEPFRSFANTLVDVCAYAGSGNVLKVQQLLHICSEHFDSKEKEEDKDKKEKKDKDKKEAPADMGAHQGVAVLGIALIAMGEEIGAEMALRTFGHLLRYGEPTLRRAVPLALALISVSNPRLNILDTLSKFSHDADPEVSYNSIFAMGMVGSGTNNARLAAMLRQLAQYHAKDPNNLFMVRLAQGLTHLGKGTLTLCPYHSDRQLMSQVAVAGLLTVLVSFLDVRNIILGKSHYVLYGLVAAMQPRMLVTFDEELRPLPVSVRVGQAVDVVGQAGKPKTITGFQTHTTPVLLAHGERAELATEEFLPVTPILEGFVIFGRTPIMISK
T2 sequence (Q13200 318-689): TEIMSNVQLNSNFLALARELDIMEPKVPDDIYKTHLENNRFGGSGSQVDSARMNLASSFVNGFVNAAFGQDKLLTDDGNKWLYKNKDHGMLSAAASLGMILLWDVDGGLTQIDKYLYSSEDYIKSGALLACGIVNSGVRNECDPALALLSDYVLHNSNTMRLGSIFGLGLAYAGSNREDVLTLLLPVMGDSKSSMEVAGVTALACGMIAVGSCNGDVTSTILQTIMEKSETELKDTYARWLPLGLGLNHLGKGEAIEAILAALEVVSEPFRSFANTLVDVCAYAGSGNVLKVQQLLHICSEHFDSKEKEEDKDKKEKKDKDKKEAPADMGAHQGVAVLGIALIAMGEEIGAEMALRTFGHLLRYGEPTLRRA

B1: binds [1].

B2: no binding [2].

B3: binds [3]; no binding (tested: no development of color within 24 h) [4]; no binding (tested: no development of color within 24 h) [5]. B3: binds [6].

B4: binds [7].

B5 was tested, and the “Lac Z Activity in Liquid Culture Assay” value [8] was 0, the “Lac Z Activity in Liquid Culture Assay” value [9] was 0.04 and the “Lac Z Activity in Liquid Culture Assay” value [10] was 0.

For B6, the binding result [11] was “no binding”, the “Lac Z Activity in Liquid Culture Assay” value [8] was 0 and the “Lac Z Activity in Liquid Culture Assay” value [9] was 0.65. The “Lac Z Activity in Liquid Culture Assay” value [10] was 0.

B7: binds [1].

B8: no binding [2].

B9: binds [1].

B10: no binding [2].
